Source: patent publication US20260109763A1 (DENALI THERAPEUTICS, published 2026)
Where a chain is given by its changes, count along the chain named. Like-named read-outs stand apart in the source and are kept apart here. Blank lines part the entries; values can stand above or below the binder they belong to.

Tests used:
human PILRA G78 on cells [1] = biological target: T1, human PILRA G78 on cells (human, UniProt Q9UKJ1 20-303); assay: flow cytometry on HEK293 cells expressing hPILRA G78
T1 construct: wild-type iMicroglia are R78/G78 heterozygous (said in the assay field); also called hPILRA; hPILRA G78
Target sequence in this assay (Q9UKJ1 20-303 R78G limits assumed): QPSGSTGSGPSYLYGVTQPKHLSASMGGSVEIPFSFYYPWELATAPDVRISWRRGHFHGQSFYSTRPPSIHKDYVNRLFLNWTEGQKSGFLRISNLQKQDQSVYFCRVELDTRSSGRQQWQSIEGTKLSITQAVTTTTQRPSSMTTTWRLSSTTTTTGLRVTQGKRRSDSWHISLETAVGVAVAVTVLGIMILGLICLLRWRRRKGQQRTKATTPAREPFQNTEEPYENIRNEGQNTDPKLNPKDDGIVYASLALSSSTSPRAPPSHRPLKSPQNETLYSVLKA

human PILRA G78 on cells [2] = biological target: T1, human PILRA G78 on cells; assay: flow cytometry on PILRA G78 expressing HEK293 cells (FIG. 1D); HEK293 cells expressing PILRA G78
Protocol: (§1) PILRA G78 or R78 overexpressing HEK293 cells were stained with NucBlue Live cell stain for 30 mins at RT. […] Cell lines were run in duplicate to account for intra-variability, for a total of N=3. The same protocol was used for CHO-K1 cells expressing hPILRA G78.

human PILRA R78 on cells [3] = biological target: T2, human PILRA R78 on cells (human, UniProt Q9UKJ1 20-303); assay: flow cytometry on PILRA R78 expressing HEK293 cells (FIG. 1F); HEK293 cells expressing PILRA R78
T2 construct: also called hPILRA R78; PILRA 78R
T2 sequence (Q9UKJ1 20-303 limits assumed): as the sequence (Q9UKJ1 20-303 R78G limits assumed) above, with G59R counted along it
Protocol: as §1

[4] = biological target: T3, human PILRA G78 extracellular domain (recombinant hPILRA ECD) (human, UniProt Q9UKJ1 20-197); assay: SPR
T3 construct: also called hPILRA G78
T3 sequence (Q9UKJ1 20-197 R78G limits assumed): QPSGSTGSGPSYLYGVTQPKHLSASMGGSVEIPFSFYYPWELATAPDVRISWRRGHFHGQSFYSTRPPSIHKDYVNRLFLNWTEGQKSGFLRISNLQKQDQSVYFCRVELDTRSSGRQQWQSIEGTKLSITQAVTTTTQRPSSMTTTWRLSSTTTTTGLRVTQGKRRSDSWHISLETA

[5] = biological target: T4, human PILRA R78 extracellular domain (recombinant) (human, UniProt Q9UKJ1 20-197); assay: SPR
T4 construct: also called hPILRA R78
Target sequence in this assay (Q9UKJ1 20-197 limits assumed): as the sequence (Q9UKJ1 20-197 R78G limits assumed) above, with G59R counted along it

[6] = biological target: T5, cynomolgus monkey PILRA extracellular domain (recombinant) (cynomolgus monkey); assay: SPR
T5 construct: also called cynoPILRA; Cyno PILRA
T5 sequence (chain, as listed by the source limits assumed): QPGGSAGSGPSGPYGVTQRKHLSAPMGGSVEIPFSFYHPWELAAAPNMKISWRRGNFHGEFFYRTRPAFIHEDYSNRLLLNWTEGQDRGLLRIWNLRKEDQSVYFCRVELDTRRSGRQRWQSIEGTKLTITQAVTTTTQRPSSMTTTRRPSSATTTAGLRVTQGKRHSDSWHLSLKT

[7] = biological target: T6, human PILRB extracellular domain (recombinant) (human, UniProt Q9UKJ0 20-191); assay: SPR
T6 construct: also called hPILRB
T6 sequence (Q9UKJ0 20-191 limits assumed): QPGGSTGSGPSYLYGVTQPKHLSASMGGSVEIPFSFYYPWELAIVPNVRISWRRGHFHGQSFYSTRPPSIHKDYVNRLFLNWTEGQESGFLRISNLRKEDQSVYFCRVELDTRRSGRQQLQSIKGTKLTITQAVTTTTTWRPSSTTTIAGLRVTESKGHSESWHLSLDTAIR

[8] = biological target: T3, human PILRA G78 extracellular domain …; assay: SPR, Biacore 8K; hPILRA ECD; antibody with wild-type Fc
Protocol: (§2) Antibodies were captured on Biacore™ Series S CM5 sensor chips immobilized with mouse anti-human Fab (human Fab capture kit from GE Healthcare) followed by injections of serial 3-fold dilutions of recombinant ECD reagents at a flow rate of 30 μL/min. Each sample was analyzed using a 3-minute association followed by a 10-minute dissociation. After each injection, the sensor chip was regenerated using a 5 0 mM glycine pH2.0 regeneration buffer. A 1:1 Languir model of simultaneous fitting of kₒₙ and koff was used for kinetics analysis.
Characterization for binding affinities of the humanized antibodies to hPILRA ECD were measured by SPR using a Biacore 8K instrument (Table 7).

human PILRA G78 on cells [9] = biological target: T1, human PILRA G78 on cells; assay: flow cytometry on PILRA G78 expressing CHO-K1 cells (FIG. 1H)
Target sequence in this assay (Q9UKJ1 20-303 R78G limits assumed): as the sequence (Q9UKJ1 20-303 R78G limits assumed) above
Protocol: as §1

human PILRA G78 on cells [10] = biological target: T1, human PILRA G78 on cells; assay: cell-based or functional assay
Target sequence in this assay (Q9UKJ1 20-303 R78G limits assumed): as above

human PILRA R78 on cells [11] = biological target: T2, human PILRA R78 on cells; assay: cell-based or functional assay
[12] = biological target: T3, human PILRA G78 extracellular domain …; assay: SPR; remark: listed apart in the source
[13] = biological target: T4, human PILRA R78 extracellular domain …; assay: SPR; remark: listed apart in the source
Target sequence in this assay (Q9UKJ1 20-197 limits assumed): as the sequence (Q9UKJ1 20-197 R78G limits assumed) above, with G59R counted along it

[14] = biological target: T5, cynomolgus monkey PILRA extracellular …; assay: SPR; remark: listed apart in the source
[15] = biological target: T6, human PILRB extracellular domain …; assay: SPR; remark: listed apart in the source
human PILRA G78 on cells [16] = biological target: T1, human PILRA G78 on cells; assay: cell binding, HEK293 cells expressing hPILRA G78; antibody with modified Fc
Target sequence in this assay (Q9UKJ1 20-303 R78G limits assumed): as the sequence (Q9UKJ1 20-303 R78G limits assumed) above

human PILRA R78 on cells [17] = biological target: T2, human PILRA R78 on cells; assay: cell binding, HEK293 cells expressing hPILRA R78; antibody with modified Fc
human PILRA G78 on cells [18] = biological target: T1, human PILRA G78 on cells; assay: flow cytometry on HEK293 PILRA G78 cells without sialidase treatment
Protocol: (§3) PILRA 78G or PILRA 78R expressing HEK293 cells were treated with SialEXO (Genovis). […] It is a combination of two sialidases acting on α2-3, α2-6 and α2-8 linkages. […] Cells were then washed twice and incubated and stained with NucBlue Live Stain for 30 mins at RT.

[19] = biological target: T3, human PILRA G78 extracellular domain …; assay: SPR, Biacore 8K; antibody captured via anti-human Fab, recombinant ECD injected; 1:1 fit;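 also: CM5 sensor chip, ECD analyte in threefold dilution series at 30 µL/min, 3 min association and 10 min dissociation, kon and koff fitted simultaneously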
Protocol: as §2

[20] = biological target: T4, human PILRA R78 extracellular domain …; assay: as above
Protocol: as §2

[21] = biological target: T6, human PILRB extracellular domain …; assay: as above
Protocol: as §2

human PILRA G78 on cells [22] = biological target: T1, human PILRA G78 on cells; assay: flow cytometry on HEK293 cells expressing hPILRA G78; remark: listed apart in the source
Target sequence in this assay (Q9UKJ1 20-303 R78G limits assumed): as above
Protocol: Parental HEK293 cells were labeled with NucBlue Live ReadyProbes Reagent for 30 mins. […] Antibody binding to the cells was detected by FACS and median fluorescence intensity (MFI) was derived from data analysis performed with the FLOJO software (FIGS. 1A-1C).

human PILRA R78 on cells [23] = biological target: T2, human PILRA R78 on cells; assay: flow cytometry on HEK293 PILRA R78 cells with sialidase treatment; with sialidase treatment
Protocol: as §3
(§4) Following the same protocol, sialidase treatment was also performed on HEK cells expressing PILRA R78.

human PILRA G78 on cells [24] = biological target: T1, human PILRA G78 on cells; assay: flow cytometry on HEK293 PILRA G78 cells with sialidase treatment
Protocol: as §3

human PILRA R78 on cells [25] = biological target: T2, human PILRA R78 on cells; assay: flow cytometry on HEK293 PILRA R78 cells without sialidase treatment; without sialidase treatment
Protocol: as §3, §4

EC50 (human PILRA G78 on cells [1]): 12 nM
EC50 (human PILRA G78 on cells [2]): 12 nM
EC50 (human PILRA R78 on cells [3]): 2.7 nM
Kd [4]: 1.2 nM
Kd [5]: 17 nM
Kd [6]: 1.8 nM
Kd [7]: 263 nM
Kd [8]: 1.58 nM
EC50 (human PILRA G78 on cells [9]): 10.8 nM
pSTAT3 S727 induction, EC50 (nM) (human PILRA G78 on cells [10]): 16 nM
pSTAT3 S727 induction, Fold Over Background (human PILRA G78 on cells [10]): 31.6 fold
pSTAT3 Y705 induction, EC50 (nM) (human PILRA G78 on cells [10]): 11.7 nM
pSTAT3 Y705 induction, Fold Over Background (human PILRA G78 on cells [10]): 31.3 fold
pSTAT3 S727 induction, EC50 (nM) (human PILRA R78 on cells [11]): 7.41 nM
pSTAT3 S727 induction, Fold Over Background (human PILRA R78 on cells [11]): 21.4 fold
pSTAT3 Y705 induction, EC50 (nM) (human PILRA R78 on cells [11]): 4.53 nM
pSTAT3 Y705 induction, Fold Over Background (human PILRA R78 on cells [11]): 34.6 fold
B1: Anti-PILRA antibody clone 12 (antibody, V domains shown)
VH: EVQLVQSGAEVKKPGASVKVSCKASGYTFTEYYMYWVRQAPGQGLELIGRIDPEDGGTDYIEKFKNRVTITADTSTSTAYLELSSLRSEDTAVYYCATTIRGTVFAFWGQGTLVTVSS
VL: DIQMTQSPSSLSASVGDRVTITCRASEDIFNGLAWYQQKPGKSPKLLIYNAKTLHTGVPSRFSGSGSGSDYTLTISSLQPEDFATYFCQQYYDYPLTFGQGTKVEIK
notes: Humanized; also called Ab.12

Kd [12]: 0.3 to 0.7 nM
Kd [13]: 11 nM
Kd [14]: 0.2 to 0.3 nM
Kd [15]: 35 to 53 nM
EC50 (human PILRA G78 on cells [16]): 13 to 14 nM
EC50 (human PILRA R78 on cells [17]): 2 to 4 nM
B2: Anti-PILRA antibody clone 38 (antibody, V domains shown)
VH: B1 VH with I61V, I70A, T98S, A106V, F107Y
VL: B1 VL with A25P, F30Y, S43A, K52N, T53S, S69T
notes: Humanized

Kd [12]: 0.2 to 0.4 nM
Kd [13]: 6.2 to 6.3 nM
Kd [14]: 0.4 nM
Kd [15]: 38 to 56 nM
EC50 (human PILRA G78 on cells [16]): 7 to 8 nM
EC50 (human PILRA R78 on cells [17]): 1 to 2 nM
B3: Anti-PILRA antibody clone 39 (antibody, V domains shown)
VH: B1 VH with I70L
VL: B1 VL
notes: Humanized

EC50 (human PILRA G78 on cells [18]): 13 nM
EC50 (human PILRA R78 on cells [3]): 2 nM
EC50 (human PILRA G78 on cells [9]): 7.6 nM
pSTAT3 S727 induction, EC50 (nM) (human PILRA G78 on cells [10]): 16 nM
pSTAT3 Y705 induction, EC50 (nM) (human PILRA G78 on cells [10]): 12.1 nM
Kd [19]: 0.72 nM
Kd [20]: 9.6 nM
Kd [21]: 90 nM
EC50 (human PILRA G78 on cells [22]): 9.3 nM
pSTAT3 S727 induction, EC50 (nM) (human PILRA R78 on cells [11]): 7.13 nM
pSTAT3 Y705 induction, EC50 (nM) (human PILRA R78 on cells [11]): 3.18 nM
EC50 (human PILRA R78 on cells [23]): 0.3 nM
EC50 (human PILRA G78 on cells [24]): 4.8 nM
EC50 (human PILRA R78 on cells [25]): 0.7 nM
B4: Anti-PILRA antibody clone 6 (antibody, V domains shown)
VH: EVQLQQSGPELQRPGASVKLSCKASGYTFTEYYMYWVKQRPKQGLELIGRIDPEDGGTDYIEKFKNKATLTADTSSNTAYMQLSSLTSEDTATYFCATTIRGTVFAFWGQGTLVTVSS
VL: DIQMTQSPASLSASLGETVTIECRASEDIFNGLAWYQQKPGKSPHLLIYNAKTLHTGVPSRFSGSGSGSQYSLKINSLQSEDVASYFCQQYYDYPLTFGSGTKLEIK
notes: the printed lines of the VL are out of order there
